Assay in all cases: cell-based or functional assay
The target in test [1] is human PAI-1, active, wild-type, non-glycosylated (E. coli-derived) (human, UniProt P05121 24-402).
In the next test the target is cynomolgus PAI-1 (cynomolgus, UniProt P05121 24-402 (human entry), limits assumed).
In another test the target is T1, mouse PAI-1 (mouse, UniProt P22777 24-401).
T1 sequence: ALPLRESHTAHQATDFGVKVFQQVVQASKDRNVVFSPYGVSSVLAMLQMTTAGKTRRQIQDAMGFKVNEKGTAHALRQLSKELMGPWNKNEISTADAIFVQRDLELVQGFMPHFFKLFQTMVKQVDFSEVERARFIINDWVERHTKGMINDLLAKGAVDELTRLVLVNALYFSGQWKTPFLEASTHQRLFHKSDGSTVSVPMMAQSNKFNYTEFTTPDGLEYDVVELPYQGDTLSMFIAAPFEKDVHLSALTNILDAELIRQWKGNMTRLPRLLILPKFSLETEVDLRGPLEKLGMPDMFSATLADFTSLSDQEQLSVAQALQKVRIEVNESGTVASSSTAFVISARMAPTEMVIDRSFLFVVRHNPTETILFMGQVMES

A further test addresses T2, rat PAI-1 (rat, UniProt P20961 24-402).
T2 sequence: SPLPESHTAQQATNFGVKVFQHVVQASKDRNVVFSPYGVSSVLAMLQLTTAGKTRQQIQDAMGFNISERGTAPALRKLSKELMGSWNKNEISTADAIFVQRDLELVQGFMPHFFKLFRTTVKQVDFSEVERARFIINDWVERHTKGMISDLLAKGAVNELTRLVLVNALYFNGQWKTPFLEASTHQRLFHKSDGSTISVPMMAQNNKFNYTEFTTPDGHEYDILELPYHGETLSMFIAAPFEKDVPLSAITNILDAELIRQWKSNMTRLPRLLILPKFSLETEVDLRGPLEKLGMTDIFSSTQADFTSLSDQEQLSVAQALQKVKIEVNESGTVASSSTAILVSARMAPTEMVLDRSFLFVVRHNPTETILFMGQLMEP

This note sets out measurements from US20120114652A1 (AbbVie / Abbott, published 2012).

B1: Antibody 11, scFv (scFv, V domains shown)
VH: QVQLQQSGAEVKKPGSSVKVSCKASGGTFSSYAISWMRQAPGQGLEWMGGIIPIFGTANYAQKFQGRVTITADESTSTAYMELSGLRSEDTAVYYCAREKRQWLEGHFDYWGRGTPVTVSS
VL: DIQMIQSPSFLSASTGDRVTITCQASEGIYHELAWYQQKPGKAPKLLIYRASSLASGAPSRFSGSGSGTDFTLTISSLQPDDFATYYCQQYSNYPLTFGGGTKLEIK
The molecule B1 yielded an IC50 chromogenic in test [1] of 102 nM. In the test with cynomolgus PAI-1, the IC50 chromogenic was 43.8 nM and the IC50 ratio cyno/human is 0.4. In the test with mouse PAI-1, the IC50 chromogenic was found to be 33.6 nM and the IC50 ratio mouse/human was 0.3. For the same molecule, in the test with rat PAI-1, the IC50 chromogenic was 59.5 nM and the IC50 ratio rat/human came out at 0.6.

B2: Antibody 24, scFv (scFv, V domains shown)
VH: QVQLQQSGAEVKKPGSSVKVSCKASGGTFSSYAISWVRQAPGQGLEWMGGIIPTFVTANYAQKFQGRVSITADESTSTAYMELSGLRSEDTAVYYCAREKRQWLEGHFDYWGRGTPVTVSS
VL: DIQMTQSPSFLSASIGDRVTITCRASEGIYHALAWYQQKPGKAPKLLIYRASSLASGAPSRFSGSGSGTDFTLTISSLQPDDFATYYCQQYSNYPLTFGGGTKLEIK
The molecule B2 registered an IC50 chromogenic in test [1] of 3.2 nM. In addition, in the test with cynomolgus PAI-1, the IC50 chromogenic came out at 1.1 nM and the IC50 ratio cyno/human was determined as 0.3. For the same molecule, in the test with mouse PAI-1, the IC50 chromogenic is 140 nM and the IC50 ratio mouse/human turned out to be 43.3. Also, in the test with rat PAI-1, the IC50 chromogenic came out at 127 nM and the IC50 ratio rat/human was 39.3.

B3: Antibody 17, scFv (scFv, V domains shown)
VH: QVQLQQSGAEVKKPGSSVKVSCKASGGTFSSYAISWVRQAPGQGLEWMGGIIPTFGTANYAQKFQGRVTITADESTSTAYMELSGLRSEDTAVYYCAREKRQWLEGHFDYWGRGTPVTVSS
VL: DIQMTQSPSFLSASIGDRVTITCRASEGIYHELAWYQQKPGKAPKLLIYRASSLASGAPSRFSGSGSGTDFTLTISSLQPDDFATYYCQQYSNYPLTFGGGTKLEIK
For B3, the IC50 chromogenic in test [1] turned out to be 71.5 nM. In the test with cynomolgus PAI-1, the IC50 chromogenic came to 41.5 nM and the IC50 ratio cyno/human came out at 0.6. In the test with mouse PAI-1, the IC50 chromogenic was determined as 26.2 nM and the IC50 ratio mouse/human was found to be 0.4. Further, in the test with rat PAI-1, the IC50 chromogenic amounted to 24.9 nM and the IC50 ratio rat/human stood at 0.3.

B4: Antibody 23, scFv (scFv, V domains shown)
VH: QVQLQQSGAEVKKPGSSVKVSCKASGGTFSSYAISWVRQAPGQGLEWMGGIIPTFGTANYAQKFQSRVTITADESTSTAYMELSGLRSEDTAVYYCAREKRQWLEGHFDYWGRGTPVTVSS
VL: DIQMTQSPSFLSASIGDRVTITCRASEGIYHSLAWYQQKPGKAPKLLIYRASSLASGAPSRFSGSGSGTDFTLTISSLQPDDFATYYCQQYSNYPLTFGGGTKLEIK
For B4, the IC50 chromogenic in test [1] was 1.6 nM. Also, in the test with cynomolgus PAI-1, the IC50 chromogenic stood at 0.5 nM and the IC50 ratio cyno/human came to 0.3. Besides, in the test with mouse PAI-1, the IC50 chromogenic stood at 376 nM and the IC50 ratio mouse/human was 229. In addition, in the test with rat PAI-1, the IC50 chromogenic was found to be 376 nM and the IC50 ratio rat/human amounted to 229.

B5: Antibody 22, scFv (scFv, V domains shown)
VH: QVQLQQSGAEVKKPGSSVKVSCKASGGTFSGYAISWVRQAPGQGLEWMGGIIPTFGTANYSQKFQGRVTITADESTSTAYMELSGLRSEDTAVYYCAREKRQWLEGHFDYWGRGTPVTVSS
VL: DIQMTQSLSFLSASIGDRVTITCRASEGIYHALAWYQQKPGKAPKLLIYRASSLASGAPSRFSGSGSGTDFTLTISSLQPDDFATYYCQQYSNYPLTFGGGTKLEIK
In the case of B5, in test [1], the IC50 chromogenic came out at 5 nM. In the test with cynomolgus PAI-1, the IC50 chromogenic is 1.5 nM and the IC50 ratio cyno/human came out at 0.3. In the test with mouse PAI-1, the IC50 chromogenic was determined as 413 nM and the IC50 ratio mouse/human came to 82.6. In the test with rat PAI-1, the IC50 chromogenic turned out to be 406 nM and the IC50 ratio rat/human was 81.2.

B6: Antibody 13, scFv (scFv, V domains shown)
VH: QVQLQQSGAEVKKPGSSVKVSCKASGGTFSSYAISWVRQAPGQGLEWMGGIIPTFGTANYAQKFQGRVTITADESTSTAYMELSDLRSEDTAVYYCAREKRQWLEGHFDYWGRGTPVTVSS
VL: DIQMTQSPSFLSASIGDRVTITCRASEGIYHSLAWYQQKPGKAPKLLIYRASSLASGAPSRFSGSGSGTDFTLTISSLQPDDFATYYCQQYSNYPLTFGGGTKLEIK
For B6, the IC50 chromogenic in test [1] amounted to 2.9 nM. For the same molecule, in the test with cynomolgus PAI-1, the IC50 chromogenic was 1.2 nM and the IC50 ratio cyno/human amounted to 0.4. Besides, in the test with mouse PAI-1, the IC50 chromogenic turned out to be 247 nM and the IC50 ratio mouse/human turned out to be 85.8. For the same molecule, in the test with rat PAI-1, the IC50 chromogenic amounted to 140 nM and the IC50 ratio rat/human worked out at 48.6.

B7: Antibody 12, scFv (scFv, V domains shown)
VH: QVQLQQSGAEVKKPGSSVKVSCKASGGTFSSYAISWVRQAPGQGLEWMGGIIPTFPTANYAQKFQGRVTITADESTSTAYMELSGLRSEDTAVYYCAREKRQWLEGHFDYWGRGTPVTVSS
VL: DIQMTQSPSFLSASIGDRVTITCRASEGIYHNLAWYQQKPGKAPKLLIYRASSLASGAPSRFSGSGSGTDFTLTISSLQPDDFATYYCQQYSNYPLTFGGGTKLEIK
The molecule B7 yielded an IC50 chromogenic in test [1] of 2.3 nM. In addition, in the test with cynomolgus PAI-1, the IC50 chromogenic was 0.6 nM and the IC50 ratio cyno/human amounted to 0.3. For the same molecule, in the test with mouse PAI-1, the IC50 chromogenic turned out to be 27.8 nM and the IC50 ratio mouse/human came out at 12.2. For the same molecule, in the test with rat PAI-1, the IC50 chromogenic came to 78.2 nM and the IC50 ratio rat/human was found to be 34.4.

B8: Antibody 19, scFv (scFv, V domains shown)
VH: QVQLQQSGAEVKKPGSSVKVSCKASGGTFSSYAISWVRQAPGQGLEWMGGIIPIFDTANYAQKFQGRVTITADESTSTAYMELSGLRSEDTAVYYCARERRQWLEGHFDYWGRGTPVTVSS
VL: DIRMTQSPSFLSASIGDRVTITCRASEGIYHELAWYQQKPGKAPKLLIYRASSLASGAPSRFSGSGSGTEFTLTISSLQPDDFATYYCQQYSNYPLTFGGGTKLEIK
B8 yielded an IC50 chromogenic in test [1] of 26 nM. For the same molecule, in the test with cynomolgus PAI-1, the IC50 chromogenic amounted to 10.8 nM and the IC50 ratio cyno/human was 0.4. For the same molecule, in the test with mouse PAI-1, the IC50 chromogenic stood at 6.4 nM and the IC50 ratio mouse/human came out at 0.2. Moreover, in the test with rat PAI-1, the IC50 chromogenic came to 7.9 nM and the IC50 ratio rat/human came to 0.3.

B9: Antibody 21, scFv (scFv, V domains shown)
VH: PVQLQQSGAEVKKPGSSVKVSCKASGGTFSSYAISWVRQAPGQGLEWMGGIIPTFGTANYAQKFQGRVTITADESTSTAYMELSGLRSEDTAVYYCAREKRQWLEGHFDYWGRGTPVTVSS
VL: DIQMAQSPSFLSASIGDRVTITCRASEGIYHNLAWYQQKPGKAPKLLIYRASSLASGAPSRFSGSGSGTDFTLTISSLQPDDFATYYCQQYSNYPLTFGGGTKLEIK
For B9, the IC50 chromogenic in test [1] is 4.1 nM. Further, in the test with cynomolgus PAI-1, the IC50 chromogenic stood at 1.6 nM and the IC50 ratio cyno/human was 0.4. Also, in the test with mouse PAI-1, the IC50 chromogenic came out at 32.2 nM and the IC50 ratio mouse/human worked out at 7.9. Moreover, in the test with rat PAI-1, the IC50 chromogenic was found to be 49.2 nM and the IC50 ratio rat/human came to 12.

B10: Antibody 25, scFv (scFv, V domains shown)
VH: QVQLQQSGAEVKKPGSSVKVSCKASGGTFSSYAISWVRQAPGQGLEWMGGIIPTFGTANYAQKFQGRVTITADESTSTAYMELSGLRSEDTAVYYCARERRQWLEGHFDYWGQGTPVTVSS
VL: DIQMTQSPSFLSASIGDRVTITCRASESIYHELAWYQQKPGKAPKLLIYKASSLASGAPSRFSGSGSGTAFTLTISSLQPDDFATYYCQQYSNYPLTFGGGTKLEIK
B10 had an IC50 chromogenic in test [1] of 13.1 nM. Further, in the test with cynomolgus PAI-1, the IC50 chromogenic was found to be 4.6 nM and the IC50 ratio cyno/human came to 0.4. In the test with mouse PAI-1, the IC50 chromogenic was determined as 172 nM and the IC50 ratio mouse/human is 13.1. Besides, in the test with rat PAI-1, the IC50 chromogenic is 322 nM and the IC50 ratio rat/human was determined as 24.6.
